Patent US20020025923A1

Biological target: PNAd (peripheral node addressin), MECA-79 purified human tonsil lysate
Test: precipitation of PNAd with the chimera

B1: L-selectin/IgG chimera (entire extracellular domain of murine L-selectin fused to the Fc domain of human IgG1) (Fc fusion, UniProt P18337 39-332, looked up, not shown: a dimerising Fc or GST)
chain: WTYHYSEKPMNWENARKFCKQNYTDLVAIQNKREIEYLENTLPKSPYYYWIGIRKIGKMWTWVGTNKTLTKEAENWGAGEPNNKKSKEDCVEIYIKRERDSGKWNDDACHKRKAALCYTASCQPGSCNGRGECVETINNHTCICDAGYYGPQCQYVVQCEPLEAPELGTMDCIHPLGNFSFQSKCAFNCSEGRELLGTAETQCGASGNWSSPEPICQVVQCEPLEAPELGTMDCIHPLGNFSFQSKCAFNCSEGRELLGTAETQCGASGNWSSPEPICQETNRSFSKIKEGDYN
- percent precipitated: > 90%
